Data taken from patent US20100298542A1 (Chugai, published 2010).

Columns and labels:
[1] = target: T1, soluble human FcRn (complex of FcRn extracellular domain and β2-microglobulin) (human, UniProt P55899 24-290; P16213 21-119); experiment: SPR (Biacore 3000), antibody captured on Protein L or anti-human kappa antibody, human FcRn as analyte, pH 6.0, steady state affinity
T1 construct: The stated ranges are those of the expressed constructs and contain the signal regions; Expressed in HEK293H cells, purified on IgG Sepharose and HiTrap Q; also called hFcRn
Experimental: (§1) The binding to human FcRn was assessed using Biacore 3000. […] Human FcRn was then injected and the binding of the human FcRn to antibody was assessed. The affinity was computed using BIAevaluation Software. The obtained sensorgram was used to calculate the amount of hFcRn bound to the antibody immediately before the end of human FcRn injection. The affinity of the antibody for human FcRn was calculated by fitting with the steady state affinity method.

[2] = target: T1, soluble human FcRn (complex of FcRn …); experiment: SPR (Biacore 3000), human FcRn, pH 6.0, steady state affinity
Experimental: as §1

[3] = target: T1, soluble human FcRn (complex of FcRn …); experiment: SPR (Biacore 3000), method of Example 6: captured antibody, human FcRn as analyte, pH 6.0, steady state affinity
Experimental: as §1

Binder	Kd [1]	binding as a multiple of that of WT-IgG1 [2]	Kd [3]
WT-M14ΔGK (humanized PM-1 variable region, M14ΔGK constant region) (antibody, copies: 2 + 2) heavy: QVQLQESGPGLVRPSQTLSLTCTVSGYSITSDHAWSWVRQPPGRGLEWIGYISYSGITTYNPSLKSRVTMLRDTSKNQFSLRLSSVTAADTAVYYCARSLARTTAMDYWGQGSLVTVSSASTKGPSVFPLAPSSKSTSGGTAALGCLVKDYFPEPVTVSWNSGALTSGVHTFPAVLQSSGLYSLSSVVTVPSSNFGTQTYTCNVDHKPSNTKVDKTVERKSCVECPPCPAPPVAGPSVFLFPPKPKDTLMISRTPEVTCVVVDVSHEDPEVQFNWYVDGVEVHNAKTKPREEQFNSTFRVVSVLTVVHQDWLNGKEYKCKVSNKGLPSSIEKTISKAKGQPREPQVYTLPPSREEMTKNQVSLTCLVKGFYPSDIAVEWESNGQPENNYKTTPPVLDSDGSFFLYSKLTVDKSRWQQGNVFSCSVMHEALHNHYTQKSLSLSP light: DIQMTQSPSSLSASVGDSVTITCQASQDISSYLNWYQQKPGKAPELLIYYGSELHSGVPSRFSGSGSGTDFTFTISSLEAEDAATYYCQQGNSLPYTFGQGTKVEIE	1850 nM	–	–
WT-M58 (humanized PM-1 variable region, M58 constant region) (antibody, copies: 2 + 2) heavy: QVQLQESGPGLVRPSQTLSLTCTVSGYSITSDHAWSWVRQPPGRGLEWIGYISYSGITTYNPSLKSRVTMLRDTSKNQFSLRLSSVTAADTAVYYCARSLARTTAMDYWGQGSLVTVSSASTKGPSVFPLAPSSKSTSGGTAALGCLVKDYFPEPVTVSWNSGALTSGVHTFPAVLQSSGLYSLSSVVTVPSSNFGTQTYTCNVDHKPSNTKVDKTVERKSCVECPPCPAPPVAGPSVFLFPPKPKDTLMISRTPEVTCVVVDVSQEDPEVQFNWYVDGVEVHNAKTKPREEQFNSTFRVVSVLTVVHQDWLNGKEYKCKVSNKGLPAPIEKTISKTKGQPREPQVYTLPPSQEEMTKNQVSLTCLVKGFYPSDIAVEWESNGQPENNYKTTPPMLDSDGSFFLYSKLTVDKSRWQEGNVFSCSVMHEALHNHYTQKSLSLSP light: DIQMTQSPSSLSASVGDSVTITCQASQDISSYLNWYQQKPGKAPELLIYYGSELHSGVPSRFSGSGSGTDFTFTISSLEAEDAATYYCQQGNSLPYTFGQGTKVEIE	1170 nM	~1.4 times that of WT-IgG1	1030 nM

Binders with a lower Kd [1], results first:

Kd [1]	binding as a multiple of that of WT-IgG1 [2]	Kd [3]	Binder
590 nM	~2.7 times that of WT-IgG1	–	WT-M44 (humanized PM-1 antibody, IgG1 constant region with alanine at position 434, EU numbering) (antibody, copies: 2 + 2) heavy: not shown light: DIQMTQSPSSLSASVGDSVTITCQASQDISSYLNWYQQKPGKAPELLIYYGSELHSGVPSRFSGSGSGTDFTFTISSLEAEDAATYYCQQGNSLPYTFGQGTKVEIE
420 nM	~3.8 times that of WT-IgG1	–	WT-M73 (humanized PM-1 variable region, M73 constant region) (antibody, copies: 2 + 2) heavy: QVQLQESGPGLVRPSQTLSLTCTVSGYSITSDHAWSWVRQPPGRGLEWIGYISYSGITTYNPSLKSRVTMLRDTSKNQFSLRLSSVTAADTAVYYCARSLARTTAMDYWGQGSLVTVSSASTKGPSVFPLAPSSKSTSGGTAALGCLVKDYFPEPVTVSWNSGALTSGVHTFPAVLQSSGLYSLSSVVTVPSSNFGTQTYTCNVDHKPSNTKVDKTVERKSCVECPPCPAPPVAGPSVFLFPPKPKDTLMISRTPEVTCVVVDVSQEDPEVQFNWYVDGVEVHNAKTKPREEQFNSTFRVVSVLTVVHQDWLNGKEYKCKVSNKGLPAPIEKTISKTKGQPREPQVYTLPPSQEEMTKNQVSLTCLVKGFYPSDIAVEWESNGQPENNYKTTPPMLDSDGSFFLYSKLTVDKSRWQEGNVFSCSVMHEALHAHYTQKSLSLSP light: DIQMTQSPSSLSASVGDSVTITCQASQDISSYLNWYQQKPGKAPELLIYYGSELHSGVPSRFSGSGSGTDFTFTISSLEAEDAATYYCQQGNSLPYTFGQGTKVEIE
